{
  "source": "paper doi:10.1101/2022.09.20.508747",
  "about": "“Affinity-matured homotypic interactions induce spectrum of PfCSP-antibody structures that influence protection from malaria infection” (bioRxiv, 2022)",
  "conditions_in_all_cases": "both partners purified",
  "key": {"[1]": {"target": "T1, NPNA8 peptide, biotinylated (for BLI) (Plasmodium falciparum)", "T1 construct": "source: synthetic peptide, InnoPep Inc", "T1 chain": "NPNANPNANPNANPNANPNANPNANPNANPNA", "test": "BLI"}, "[2]": {"target": "T2, NPNA4 peptide, biotinylated (for BLI) (Plasmodium falciparum)", "T2 construct": "source: synthetic peptide, InnoPep Inc", "T2 chain": "NPNANPNANPNANPNA-{Biotin′}", "test": "BLI"}, "[3]": {"target": "T3, NPNA8 peptide (for cryo-EM) (Plasmodium falciparum)", "T3 construct": "source: synthetic peptide, InnoPep Inc", "T3 chain": "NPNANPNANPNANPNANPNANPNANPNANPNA", "test": "cryo-EM structure"}},
  "note": "Primed or numbered codes have the meaning given here. No end group written: not given here. Biotin′ = biotin",
  "data": [
    {"binder": "337 Fab (Fab, V domains shown, also called mAb 337; source: ExpiCHO cells, purified (mAb Select PrismA or Capture Select, SEC)) VH: QVQLVESGGGVVQPGRSLRLSCAASGFSFSTYGMHWVRQAPGKGLEWVALIWHDGSKKFYSESVRGRFTISRDNSMDTLYLQMSSLRAEDTAVYYCARDGADYFDSTGGAFDIWGQGTMVIVSS VL: EIVMTQSPATLSVSPGERATLSCRASQSVSSNLAWYQQKPGQAPRLLIYGASTRATGIPARFSGSGSGTEFTLTISSLQSEDFATYYCQQYKTWWTFGQGTKVEIK", "values": [
      {"measurement": "binding result", "setting": "[1]", "value": "binds"},
      {"measurement": "binding result", "setting": "[2]", "value": "binds"}
    ]},
    {"binder": "227 Fab (Fab, V domains shown, also called mAb 227; source: ExpiCHO cells, purified (mAb Select PrismA or Capture Select, SEC)) VH: QVQLVQSGGGVVQPGRSLRLSCVTSGFTFPAFGMHWVRQAPGKGLEWVAVIWYDGSKKYYADSVRGRFTISRDNSRNTLYLQMHSLRAEDTAVYYCARVKNYESSGYSQCLDYWGQGVLVTVAS VL: QSVLTQPPSVSGAPGQRVTISCTGSSSNIGAGYDVHWYQQLPGTAPKLLIYGNGNRPSGVPDRFSGSKSGTSVSLAITGLQAEDEADYYCQSYDSSLSAFVFGTGTKVTVL", "values": [
      {"measurement": "binding result", "setting": "[2]", "value": "binds"},
      {"measurement": "stoichiometry N", "setting": "[3]", "value": 4, "unit": "Fabs per NPNA8 peptide"}
    ]},
    {"binder": "239 Fab (Fab, V domains shown, also called mAb 239; source: ExpiCHO cells, purified (mAb Select PrismA or Capture Select, SEC)) VH: QVQLVESGGGVVQPGRSLRLSCAASRLTFRNFGMHWVRQTPGKGLEWVAVIWHDGSNKFYADSVEGRFTISRDNSKNTLYLQMNSLRDEDTAIYYCAKDWGGASDRVFDYWGRGTLVIVSS VL: DIQMTQSPSTLSASVGDRVTITCRASQSVSTSLAWYQQKPGKAPNLLIYQASTLYRGVPSRFSGSGSGTEFTLTIGSLQPDDFATYYCQHYNSYSRITFGQGTRLEIK", "values": [
      {"measurement": "binding result", "setting": "[1]", "value": "binds"},
      {"measurement": "binding result", "setting": "[2]", "value": "binds"}
    ]},
    {"binder": "239R Fab (Fab, V domains shown, also called germline-reverted 239; source: ExpiCHO cells, purified (mAb Select PrismA or Capture Select, SEC)) VH: QVQLVESGGGVVQPGRSLRLSCAASRLTFSSYGMHWVRQTPGKGLEWVAVIWHDGSNKFYADSVKGRFTISRDNSKNTLYLQMNSLRDEDTAIYYCAKDWGGASDRVFDYWGRGTLVIVSS VL: DIQMTQSPSTLSASVGDRVTITCRASQSVSTSLAWYQQKPGKAPNLLIYQASTLYTGVPSRFSGSGSGTEFTLTIGSLQPDDFATYYCQHYNSYSRITFGQGTRLEIK", "values": [
      {"measurement": "binding result", "setting": "[1]", "value": "binds"},
      {"measurement": "fold lower apparent affinity than 239", "setting": "[2]", "value": "~2", "unit": "fold"}
    ]},
    {"binder": "364 Fab (Fab, V domains shown, also called mAb 364; source: ExpiCHO cells, purified (mAb Select PrismA or Capture Select, SEC)) VH: QVQLVESGGGVVQPGGSLRLSCAASGFTFSGYGMHWVRQVPGKGLEWVAIIWFDGSQKYYADSVQGRFTISRDNSKKTLFLRMNSLRAEDTAVYYCAKVHDDEPTQDYWGQGTLVTVSS VL: DIQMTQSPSTLSASVGDRVTITCRASQGISTSLAWYQQKPGKAPKLLIYKASSLESGVPSRFSGSGSGTEFTLTITSLQPEDFATYYCQQYKRYWTFGQGTKVEIK", "values": [
      {"measurement": "binding result", "setting": "[1]", "value": "binds"},
      {"measurement": "binding result", "setting": "[2]", "value": "binds"}
    ]},
    {"binder": "311 Fab (Fab, V domains shown, source: ExpiCHO cells, purified (mAb Select PrismA or Capture Select, SEC)) VH: QVQLVESGGGVVPPGRSLRLSCATSGFTFSNYGMHWVRQAPGKGLEWVAIIWYDGSRNFYAASVEGRFTISRDNSKNTLYLQMNSLRVEDTAVYYCARAAYYDTSGYGDYWGQGTLVTVSS VL: QSVLTQPPSVSGAPGQTVTISCTGGSSNIGAGYDVHWYQQLPGTAPKLLIYGNINRPSGVPDRFSGSKSGTSASLAITGLQAEDEADYYCQSYDRRLSGSWVFGGGTKLTVL", "values": [
      {"measurement": "binding result", "setting": "[1]", "value": "binds"},
      {"measurement": "binding result", "setting": "[2]", "value": "binds"}
    ]},
    {"binder": "311R Fab (Fab, V domains shown, also called Fab311R; germline-reverted 311; source: ExpiCHO cells, purified (mAb Select PrismA or Capture Select, SEC)) VH: QVQLVESGGGVVPPGRSLRLSCATSGFTFSSYGMHWVRQAPGKGLEWVAIIWYDGSNKFYAASVKGRFTISRDNSKNTLYLQMNSLRVEDTAVYYCARAAYYDTSGYGDYWGQGTLVTVSS VL: QSVLTQPPSVSGAPGQTVTISCTGGSSNIGAGYDVHWYQQLPGTAPKLLIYGNINRPSGVPDRFSGSKSGTSASLAITGLQAEDEADYYCQSYDSSLSGSWVFGGGTKLTVL", "values": [
      {"measurement": "binding result", "setting": "[1]", "value": "binds"},
      {"measurement": "binding result", "setting": "[2]", "value": "binds"}
    ]},
    {"binder": "334 Fab (Fab, V domains shown, also called mAb 334; source: ExpiCHO cells, purified (mAb Select PrismA or Capture Select, SEC)) VH: QVQLVESGGGVVQPGRSLTLSCAASGFTFSNYGMHWVRQTPGKGLAWVAIIWYDGSKTYYEDSVKGRFTISRDNSKNTLYLQMNSLRVDDTAVYYCARVRHSSSRHGSAFDLWGQGTLVTVSS VL: VIQMTQSPSTLSASVGDRVTITCRASQSVSTWLAWYQQKPGQGPKLLIYEASSLESGVPSRFSGSGSGTEFTLTISSLQPDDFATYYCQQYNSYSFWTFGQGTKVEIK", "values": [
      {"measurement": "binding result", "setting": "[1]", "value": "binds"},
      {"measurement": "binding result", "setting": "[2]", "value": "binds"}
    ]},
    {"binder": "356 Fab (Fab, V domains shown, also called mAb 356; source: ExpiCHO cells, purified (mAb Select PrismA or Capture Select, SEC)) VH: QVQLVESGGGVVQPGRSLRLSCAASGFTFRNFGMHWVRQTPGKGLEWVAVIWHDGSNKFYADSVEGRFTISRDNSKNMIYLQMNSLRVEDTAIYYCARDSLFYDHDNSGYYGYWGQGTLVTVSS VL: QIVMTQSPATVSVSPGERATLSCRASRSVTSKLAWYQQKPGQAPRLLIYGASTRATGIPARFSGSGSGTEFTLTISSLQSEDFAVYFCQQYNNGFTFGPGTKVDFK", "values": [
      {"measurement": "binding result", "setting": "[1]", "value": "binds"},
      {"measurement": "binding result", "setting": "[2]", "value": "binds"}
    ]},
    {"binder": "356R Fab (Fab, V domains shown, also called germline-reverted 356; source: ExpiCHO cells, purified (mAb Select PrismA or Capture Select, SEC)) VH: QVQLVESGGGVVQPGRSLRLSCAASGFTFSSYGMHWVRQTPGKGLEWVAVIWHDGSNKFYADSVKGRFTISRDNSKNMIYLQMNSLRVEDTAIYYCARDSLFYDHDNSGYYGYWGQGTLVTVSS VL: EIVMTQSPATVSVSPGERATLSCRASQSVTSKLAWYQQKPGQAPRLLIYGASTRATGIPARFSGSGSGTEFTLTISSLQSEDFAVYFCQQYNNGFTFGPGTKVDFK", "values": [
      {"measurement": "binding result", "setting": "[1]", "value": "binds"},
      {"measurement": "fold higher apparent affinity than 356", "setting": "[2]", "value": "~2", "unit": "fold"}
    ]}
  ]
}
